Test results reported in publication PMC10864275, “Binding kinetics drive G protein subtype selectivity at the β1-adrenergic receptor” (Nature Communications, 2024).
Several values for one entry are separate records, joined by “and”; a condition that tells them apart may be missing. Equal entries are not always repeated.

Tests used:
Settings in all cases: both partners purified
[1] = target: T1, avi-β1AR-E (turkey β1-adrenergic receptor, β1AR-E construct with N-terminal biotinylated avi-tag) (turkey, UniProt P07700 1-367, Δ3-32 | Δ244-271 | C358A^8.59 | C116L^3.27 | R68S^1.59 | F327A^7.37 | …, biotin on the avi-tag); assay: BLI; biotinylated avi-β1AR in LMNG on streptavidin biosensors, mini-G in solution; 500 μM isoprenaline; 20 mM TrisHCl pH 8.0, 150 mM NaCl, 15 mM MgCl2, 0.02% LMNG, 0.1% BSA; 25 °C; single point measurements, monophasic 1:1 local fit, n = 3
T1 construct: turkey β1-adrenergic receptor; N-terminus truncated (Δ3-32), C-terminus truncated (Δ368-483), IL3 truncated (Δ244-271); as β1AR-W (β1AR-MetΔ5) but with E130 as in the wild type; source: Sf9 (baculovirus), purified in LMNG (NiNTA, SEC), biotinylated with GST-BirA, repurified by SEC; not shown: avi-tag, N-terminal, kept

[2] = target: T2, avi-β1AR-E (turkey β1-adrenergic receptor, minimally thermostabilised construct with E130 restored, … (turkey, UniProt P07700 1-367, Δ3-32 | Δ244-271 | C358A^8.59 | C116L^3.27 | R68S^1.59 | F327A^7.37 | …, biotin on the avi-tag)); assay: BLI; biotinylated avi-tagged receptor in LMNG immobilised on streptavidin biosensors; 500 μM isoprenaline; mini-G in solution at a single concentration (0.125-4 μM); 20 mM TrisHCl pH 8.0, 150 mM NaCl, 15 mM MgCl2, 0.02% LMNG, 0.1% BSA; 25 °C; 1:1 monophasic local partial fit; one of n = 3 tips
T2 construct: turkey β1-adrenergic receptor; N-terminus truncated (Δ3-32), C-terminus truncated (Δ368-483), IL3 truncated (Δ244-271); as β1AR-W (β1AR-MetΔ5) but with E130W reverted to E130; source: Sf9 (baculovirus), purified in LMNG (NiNTA, SEC), biotinylated with GST-BirA and repurified by SEC; not shown: avi-tag, N-terminal, kept

[3] = target: T3, avi-β1AR-W (turkey β1-adrenergic receptor β1AR-MetΔ5, thermostabilised with E130W, N-terminal biotinylated … (turkey, UniProt P07700 1-367, Δ3-32 | Δ244-271 | C358A^8.59 | C116L^3.27 | R68S^1.59 | E130W^3.41 | …, biotin on the avi-tag)); assay: as above
T3 construct: turkey β1-adrenergic receptor; N-terminus truncated (Δ3-32), C-terminus truncated (Δ368-483), IL3 truncated (Δ244-271); source: Sf9 (baculovirus), purified in LMNG (NiNTA, SEC), biotinylated with GST-BirA and repurified by SEC; not shown: avi-tag, N-terminal, kept
T3 sequence (P07700 other isoform, or with tags, fused parts or gaps with the stated changes): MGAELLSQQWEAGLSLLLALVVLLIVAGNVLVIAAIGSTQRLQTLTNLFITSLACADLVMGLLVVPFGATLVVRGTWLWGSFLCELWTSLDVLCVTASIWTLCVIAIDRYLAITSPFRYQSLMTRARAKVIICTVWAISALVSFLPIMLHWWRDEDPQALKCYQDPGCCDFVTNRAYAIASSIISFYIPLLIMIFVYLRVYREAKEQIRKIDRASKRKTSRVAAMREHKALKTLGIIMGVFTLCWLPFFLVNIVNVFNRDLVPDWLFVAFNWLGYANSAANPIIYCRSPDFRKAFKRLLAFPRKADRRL

T2 sequence (P07700 other isoform, or with tags, fused parts or gaps with the stated changes): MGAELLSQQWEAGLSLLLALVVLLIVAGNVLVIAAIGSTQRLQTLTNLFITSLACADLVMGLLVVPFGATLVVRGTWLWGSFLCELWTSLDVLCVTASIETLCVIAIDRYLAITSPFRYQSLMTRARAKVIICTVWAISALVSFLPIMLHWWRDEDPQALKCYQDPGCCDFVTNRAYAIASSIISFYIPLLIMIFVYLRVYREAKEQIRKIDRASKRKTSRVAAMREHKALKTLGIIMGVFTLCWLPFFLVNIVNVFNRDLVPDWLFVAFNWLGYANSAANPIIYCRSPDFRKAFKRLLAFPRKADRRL

Binder	Kd [1] [nM]	fold reduction of kon against mini-Gs [1] [fold]	Kd [2]	koff [2]	kon [2]	Kd [3]	koff [3]	kon [3]
mini-Gs/q R70 (domain or fragment) IEKQLQKDKQVYRATHRLLLLGADNSGKSTIVKQMRIYHTSGIFETKFQVDKVNFHMFDVGGQRDERRKWIQCFNDVTAIIFVVDSSDYNRLQEALNDFKSIWNNRWLRTISVILFLNKQDLLAEKVLAGKSKIEDYFPEFARYTTPEDATPEPGEDPRVTRAKYFIRDEFLRISTASGDGRHYCYPHFTCAVDTENARRIFNDCKDIILQMNLREYNLV	240	–	–	–	–	–	–	–
mini-Gs/q R70 (chimera of mini-Gs with the receptor-interacting residues of the α5 helix replaced by Gq residues) (domain or fragment) GIEKQLQKDKQVYRATHRLLLLGADNSGKSTIVKQMRILHGGSGGSGGTSGIFETKFQVDKVNFHMFDVGGQRDERRKWIQCFNDVTAIIFVVDSSDYNRLQEALNDFKSIWNNRWLRTISVILFLNKQDLLAEKVLAGKSKIEDYFPEFARYTTPEDATPEPGEDPRVTRAKYFIRDEFLRISTASGDGRHYCYPHFTCAVDTENARRIFNDCKDIILQMNLREYNLV	–	–	241 nM and 242 nM and 244 nM	0.00344 s⁻¹ (2×) and 0.0034 s⁻¹	14300 M⁻¹ s⁻¹ and 14200 M⁻¹ s⁻¹ and 14000 M⁻¹ s⁻¹	529 nM and 541 nM and 533 nM	0.00658 s⁻¹ and 0.00672 s⁻¹ and 0.00679 s⁻¹	12400 M⁻¹ s⁻¹ (2×) and 12800 M⁻¹ s⁻¹

Continued, values first:

Kd [1] [nM]	fold reduction of kon against mini-Gs [1] [fold]	Kd [2]	koff [2]	kon [2]	Kd [3]	koff [3]	kon [3]	Binder
1090	40	–	–	–	–	–	–	mini-Gs/i R43 with C96A (domain or fragment) IEKQLQKDKQVYRATHRLLLLGADNSGKSTIVKQMRIYHTSGIFETKFQVDKVNFHMFDVGGQRDERRKWIQAFNDVTAIIFVVDSSDYNRLQEALNDFKSIWNNRWLRTISVILFLNKQDLLAEKVLAGKSKIEDYFPEFARYTTPEDATPEPGEDPRVTRAKYFIRDEFLRISTASGDGRHYCYPHFTCAVDTENARRIFNDVTDIIIKMNLRDCGLF
–	–	1070 nM and 1180 nM and 1030 nM	0.00392 s⁻¹ and 0.00399 s⁻¹ (2×)	3670 M⁻¹ s⁻¹ and 3370 M⁻¹ s⁻¹ and 3860 M⁻¹ s⁻¹	3050 nM and 2400 nM and 2150 nM	0.0063 s⁻¹ and 0.00605 s⁻¹ and 0.00634 s⁻¹	2070 M⁻¹ s⁻¹ and 2520 M⁻¹ s⁻¹ and 2950 M⁻¹ s⁻¹	mini-Gs/i R43 C96A (chimera of mini-Gs with the receptor-interacting residues of the α5 helix replaced by Gi1 residues) (domain or fragment) IEKQLQKDKQVYRATHRLLLLGADNSGKSTIVKQMRILHTSGIFETKFQVDKVNFHMFDVGGQRDERRKWIQAFNDVTAIIFVVDSSDYNRLQEALNDFKSIWNNRWLRTISVILFLNKQDLLAEKVLAGKSKIEDYFPEFARYTTPEDATPEPGEDPRVTRAKYFIRDEFLRISTASGDGRHYCYPHFTCAVDTENARRIFNDVTDIIIKMNLRDCGLF
